Assay results reported in US20250332297A1, “DLL3-SPECIFIC BINDING CONSTRUCTS AND THEIR USE IN RADIOTHERAPY” (MOLECULAR PARTNERS AG, priority 2024, published 2025).
Blank lines part the entries; values can stand above or below the binder they belong to.

Tests used:
[1] = target: T1, human serum albumin (human, UniProt P02768 25-609); test: SPR, HSA injected (injection 2) over immobilised hDLL3-ECD without conjugate
T1 construct: also called HSA

[2] = target: T2, Human DLL3 expressed on cells (HEK293T-hDLL3, NCI-H82, SHP-77, MC38-hDLL3) (human, UniProt Q9NYJ7 27-618); test: flow cytometry titration on NCI-H82 cells, with HSA
T2 construct: also called DLL3 endogenously expressed on human cells
T2 sequence: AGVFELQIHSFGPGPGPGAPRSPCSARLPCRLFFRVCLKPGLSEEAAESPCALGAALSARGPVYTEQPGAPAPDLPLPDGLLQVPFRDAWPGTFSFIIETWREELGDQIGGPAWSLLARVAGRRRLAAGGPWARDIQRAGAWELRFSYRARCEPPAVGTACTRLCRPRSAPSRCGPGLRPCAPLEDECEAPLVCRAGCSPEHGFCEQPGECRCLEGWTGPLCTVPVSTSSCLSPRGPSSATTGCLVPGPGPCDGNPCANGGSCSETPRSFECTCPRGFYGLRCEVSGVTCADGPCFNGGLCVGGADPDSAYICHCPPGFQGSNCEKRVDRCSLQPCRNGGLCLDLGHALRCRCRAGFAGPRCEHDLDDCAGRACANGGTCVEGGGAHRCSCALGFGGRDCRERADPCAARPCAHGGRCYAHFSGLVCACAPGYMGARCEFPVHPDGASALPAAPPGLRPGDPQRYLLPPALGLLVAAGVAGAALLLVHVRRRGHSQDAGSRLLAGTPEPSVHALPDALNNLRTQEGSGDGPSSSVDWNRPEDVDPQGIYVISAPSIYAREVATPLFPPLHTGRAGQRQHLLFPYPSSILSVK

binding result [1]: no binding (tested: 1000 nM)
B1: Human DLL3-ECD (recombinant extracellular domain of human DLL3, Examples 11, 17 and 19) (Fc fusion)
chain: AGVFELQIHSFGPGPGPGAPRSPCSARLPCRLFFRVCLKPGLSEEAAESPCALGAALSARGPVYTEQPGAPAPDLPLPDGLLQVPFRDAWPGTFSFIIETWREELGDQIGGPAWSLLARVAGRRRLAAGGPWARDIQRAGAWELRFSYRARCEPPAVGTACTRLCRPRSAPSRCGPGLRPCAPLEDECEAPLVCRAGCSPEHGFCEQPGECRCLEGWTGPLCTVPVSTSSCLSPRGPSSATTGCLVPGPGPCDGNPCANGGSCSETPRSFECTCPRGFYGLRCEVSGVTCADGPCFNGGLCVGGADPDSAYICHCPPGFQGSNCEKRVDRCSLQPCRNGGLCLDLGHALRCRCRAGFAGPRCEHDLDDCAGRACANGGTCVEGGGAHRCSCALGFGGRDCRERADPCAARPCAHGGRCYAHFSGLVCACAPGYMGARCEF
modifications: biotinylated at the Avi-tag where immobilised (Examples 11 and 19)
notes: also called hDLL3-ECD; human ECD; not shown: Avi-tag and Fc knob into hole (order depends on the format)

binding result [2]: no binding (tested: 500 nM)
B2: Non-binding DARPin control comprising SEQ ID NO: 22 (designed binder)
chain: DLGKKLLEAARAGQDDEVRELLKAGADVNAKDKDGYTPLHLAAREGHLEIVEVLLKAGADVNAKDKDGYTPLHLAAREGHLEIVEVLLKAGADVNAQDKSGKTPADLAADAGHEDIAEVLQKAAGSPTPTPTTPTPTPTTPTPTPTGSDLGKKLLEAARAGQDDEVRELLKAGADVNAKDKDGYTPLHLAAREGHLEIVEVLLKAGADVNAKDKDGYTPLHLAAREGHLEIVEVLLKAGADVNAQDKSGKTPADLAADAGHEDIAEVLQKAA
notes: Negative control on NCI-H82 cells; also called control DARPin
